Source: paper PMC4931249

Molecular target: WT BG505 SOSIP.664 gp140 trimer (HIV-1 clade-A BG505)
Assay: negative-stain EM

Substance: WT BG505 SOSIP.664 gp140 trimer (complex)
- stoichiometry N: 3
